Measured values from publication doi:10.1101/2023.07.17.549218.

Columns and labels:
[1] = molecular target: HK97 small terminase (bacteriophage HK97); test: cryo-EM structure; small terminase with 31 bp dsDNA (cos 7-37), 1:2 protein to DNA, 25 mM Tris-HCl pH 7.5, 200 mM NaCl, 10 mM MgCl2; complex purified on S200 10/30; nonamer
[2] = molecular target: HK97 small terminase Arg5Ala mutant (bacteriophage HK97); test: SEC; size exclusion chromatography of the purified mutant proteins (Supplementary Fig. 12); nonamer
[3] = molecular target: HK97 small terminase Arg7Ala mutant (bacteriophage HK97); test: as above
[4] = molecular target: HK97 small terminase Arg107Ala mutant (bacteriophage HK97); test: as above
[5] = molecular target: HK97 small terminase Arg114Ala mutant (bacteriophage HK97); test: as above
[6] = molecular target: HK97 small terminase Lys4Ala mutant (bacteriophage HK97); test: as above
[7] = molecular target: HK97 small terminase Lys4Ala/Arg5Ala/Arg7Ala triple mutant (bacteriophage HK97); test: as above
[8] = molecular target: HK97 small terminase Lys100Ala mutant (bacteriophage HK97); test: as above
[9] = molecular target: T1, HK97 small terminase WT (bacteriophage HK97) (UniProt Q9MBW4); test: MST; settings: 25 mM Tris-HCl pH 7.5, 200 mM NaCl, 10 mM MgCl2; EMSA: 3 h at RT, gel at 4 C, 1 uM protein with 2 uM unlabelled or 30 nM labelled DNA; MST: +0.005-0.01% Tween …
T1 sequence: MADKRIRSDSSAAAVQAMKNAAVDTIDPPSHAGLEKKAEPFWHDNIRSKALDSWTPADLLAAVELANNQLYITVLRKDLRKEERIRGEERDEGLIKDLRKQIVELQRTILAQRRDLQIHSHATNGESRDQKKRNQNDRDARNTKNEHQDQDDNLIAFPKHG

[10] = tested on: HK97 small terminase R107A (bacteriophage HK97); test: MST; settings: 25 mM Tris-HCl pH 7.5, 200 mM NaCl, 10 mM MgCl2; EMSA: 3 h at RT, gel at 4 C, 1 uM protein with 2 uM unlabelled or 30 nM labelled DNA; MST: +0.005-0.01% Tween …
[11] = tested on: HK97 small terminase K4A/R5A/R7A (bacteriophage HK97); test: MST; settings: 25 mM Tris-HCl pH 7.5, 200 mM NaCl, 10 mM MgCl2; EMSA: 3 h at RT, gel at 4 C, 1 uM protein with 2 uM unlabelled or 30 nM labelled DNA; MST: +0.005-0.01% Tween …

For HK97 small terminase (natural protein), the stoichiometry N [1] was 9.

“HK97 small terminase Arg5Ala mutant (natural protein)” was tested, and the stoichiometry N [2] was 9.

Work on “HK97 small terminase Arg7Ala mutant (natural protein)” yielded a stoichiometry N [3] of 9.

“HK97 small terminase Arg107Ala mutant (natural protein)” was tested, and the stoichiometry N [4] was 9.

“HK97 small terminase Arg114Ala mutant (natural protein)” gave a stoichiometry N [5] of 9.

“HK97 small terminase Lys4Ala mutant (natural protein)” was tested, and the stoichiometry N [6] was 9.

“HK97 small terminase Lys4Ala/Arg5Ala/Arg7Ala triple mutant (natural protein)” gave a stoichiometry N [7] of 9.

“HK97 small terminase Lys100Ala mutant (natural protein)” was tested, and the stoichiometry N [8] was 9.

cos71 (cos 31-100), lacks binding site was tested, and the Kd [9] was 2040 nM.

Substance cos100 (cos -20 to 80) has a Kd [10] of 790 nM, a Kd [9] of 500 nM and a Kd [11] of 850 nM.
